Measured values published in US20100239570A1.

What was measured:
[1] = biological target: synthetic monomeric Abeta1-42 peptide (UniProt P05067); experiment: ELISA, peptide coated, antibody titrated
[2] = biological target: synthetic monomeric Abeta1-40 peptide (UniProt P05067); experiment: ELISA, peptide coated, antibody titrated
[3] = biological target: Abeta1-42 fibrils (UniProt P05067); experiment: ELISA, fibrils coated, antibody titrated

EC50 [1]: 0.061 nM | EC50 [2]: 0.04 nM | EC50 [3]: 0.07 nM
B1: antibody NI-103 (antibody, V domains shown)
VH: EVQLHQSGPELVKPGASVKISCKTSGYTFTEYTMHWVKQSHGKSLEWIGGVNPYNDNTSYIRKLQGKVTLTVDRSSSTAYMELRSLTSEDSAVYFCARYGGLRPYYFPMDFWGQGTSVTVSS
VL: QVVLSQSPAILSASPGERVTLTCRASSSVNYMHWYQQKPGSSPKAWIYATSNLASGVPDRFSASGSGTSYSLTISRVEAEDAATYYCQQWRTNPPTFGAGTKLELKR
